Measurements reported in US20070014720A1.

Legend:
[1] = molecular target: human CD20 (human) (UniProt P11836); assay: FACS KD on SB cells expressing CD20 (GMF against mAb concentration, nonlinear fit)
[2] = molecular target: human CD20 (human) (UniProt P11836); assay: cell-based or functional assay

Chain of human CD20 (human) (P11836 whole entry): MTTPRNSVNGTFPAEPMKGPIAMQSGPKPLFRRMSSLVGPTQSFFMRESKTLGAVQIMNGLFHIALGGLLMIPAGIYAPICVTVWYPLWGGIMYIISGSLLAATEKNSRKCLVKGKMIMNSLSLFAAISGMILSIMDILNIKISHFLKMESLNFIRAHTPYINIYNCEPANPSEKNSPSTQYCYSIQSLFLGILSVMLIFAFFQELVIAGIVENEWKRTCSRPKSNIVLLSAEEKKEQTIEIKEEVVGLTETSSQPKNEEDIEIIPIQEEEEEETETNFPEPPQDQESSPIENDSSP

Kd [1] [nM] | % Lysis Daudi 0.001 µg/ml ADCC [2] [%] | % Lysis Daudi 1 µg/ml ADCC [2] [%] | % Lysis Raji 0.001 µg/ml ADCC [2] [%] | % Lysis Raji 1 µg/ml ADCC [2] [%] | % Lysis Ramos 0.001 µg/ml ADCC [2] [%] | % Lysis Ramos 1 µg/ml ADCC [2] [%] | EC50 µg/ml Daudi CDC [2] [µg/mL] | EC50 µg/ml Raji CDC [2] [µg/mL] | EC50 µg/ml Ramos Apoptosis Alamar Blue [2] [µg/mL] | EC50 µg/ml Ramos Apoptosis Annexin V [2] [µg/mL] | EC50 µg/ml Ramos Apoptosis Cell Titer Glo [2] [µg/mL] | EC50 µg/ml Ramos Apoptosis WST-1 [2] [µg/mL] | EC50 µg/ml Ramos CDC [2] [µg/mL] | Substance
34.1 | – | – | – | – | – | – | – | – | – | – | – | – | – | B1 antibody (Beckman Coulter, Miami, Fla.)
8.1 | 33 | 95 | 16 | 62 | 5 | 78 | 1.56 | 0.31 | 0.222 | 2.59 | 0.576 | 0.0326 | 0.43 | Rituxan (Rituximab, Genentech Inc.) (antibody)
